Here are results for 125 sequences from the supplement of paper PMC9112550, “Optimization of the antimicrobial peptide Bac7 by deep mutational scanning” (BMC Biology, 2022).
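Further: peptides expressed intracellularly from a pBAD plasmid library in pooled LB shake-flask culture, induced with 0.3% L-arabinose, DNA abundance read by NGS, three biological replicates, DESeq2 with apeglm shrinkage.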

The series has as its system Escherichia coli TOP10. The experiment in a line: shrunken log2 fold change of peptide-encoding DNA abundance (4.5 h post-induction vs induction); higher = less antimicrobial activity (less host growth inhibition). To be noted: time post-induction: 4.5 h; library: site-saturation at positions 5, 18, 19, 20.
As to RRIRERPPRLPRPRPRPDMQPRP, the “shrunken log2 fold change” value was -0.184. Under RRIRPRPPRLPRPRPRPRKKPRP stands 0.0638; under RRIRGRPPRLPRPRPRPDKCPRP, 0.627; under RRIRGRPPRLPRPRPRPHMWPRP, -0.0527. Under RRIRARPPRLPRPRPRPVRFPRP stands 0.828; under RRIRMRPPRLPRPRPRPNTCPRP, -0.145. Under RRIRRRPPRLPRPRPRPMVAPRP stands 0.363; under RRIRGRPPRLPRPRPRPWFIPRP, -0.361.

Consider RRIRRRPPRLPRPRPRPEDVPRP, for which the “shrunken log2 fold change” value was -0.0417. The value for RRIRIRPPRLPRPRPRPMIAPRP was -0.101; that for RRIRHRPPRLPRPRPRPETSPRP was 0.0165. The value for RRIRFRPPRLPRPRPRPCTGPRP was 0.0368; that for RRIRHRPPRLPRPRPRPLMTPRP was -0.192. Under RRIRTRPPRLPRPRPRPFEEPRP stands 0.00896; under RRIRVRPPRLPRPRPRPRVPPRP, -0.00723. Consider RRIRCRPPRLPRPRPRPLDRPRP, for which the “shrunken log2 fold change” value was -0.478. As to RRIRVRPPRLPRPRPRPFIWPRP, the “shrunken log2 fold change” value was -0.0481. The value for RRIRQRPPRLPRPRPRPRIFPRP was -0.131; that for RRIRKRPPRLPRPRPRPYGWPRP was 0.05. Under RRIRLRPPRLPRPRPRPVYEPRP stands 0.788. On to RRIRGRPPRLPRPRPRPWMWPRP, for which the “shrunken log2 fold change” value came out at 0.218. On to RRIRIRPPRLPRPRPRPDPVPRP, for which the “shrunken log2 fold change” value was -0.0546. Consider RRIRVRPPRLPRPRPRPWQLPRP, for which the “shrunken log2 fold change” value is -0.421.

Regarding RRIRFRPPRLPRPRPRPFWGPRP, the “shrunken log2 fold change” value amounted to 0.0215. On to RRIRERPPRLPRPRPRPHYQPRP, for which the “shrunken log2 fold change” value is -0.267. Under RRIRTRPPRLPRPRPRPIHCPRP stands -0.172; under RRIRHRPPRLPRPRPRPSVHPRP, -0.204; under RRIRFRPPRLPRPRPRPQDIPRP, -0.0714. Under RRIRERPPRLPRPRPRPKHSPRP stands 0.111; under RRIRLRPPRLPRPRPRPIEDPRP, 0.0562. Under RRIRHRPPRLPRPRPRPFMHPRP stands -0.377; under RRIRTRPPRLPRPRPRPCKSPRP, 0.075; under RRIRQRPPRLPRPRPRPNGKPRP, -0.362. As to RRIRCRPPRLPRPRPRPRMMPRP, the “shrunken log2 fold change” value was -0.11.

On to RRIRNRPPRLPRPRPRPAHLPRP, for which the “shrunken log2 fold change” value was 0.256. Under RRIRRRPPRLPRPRPRPDWWPRP stands -0.0208; under RRIRERPPRLPRPRPRPFTVPRP, -0.00987. The value for RRIRCRPPRLPRPRPRPVSYPRP was 0.0707; that for RRIRDRPPRLPRPRPRPQSPPRP was 0.0974; that for RRIRPRPPRLPRPRPRPQITPRP was -0.314.

As for RRIRFRPPRLPRPRPRPWNRPRP, the “shrunken log2 fold change” value was -0.216.

Turning to RRIRVRPPRLPRPRPRPHTCPRP, the “shrunken log2 fold change” value is -0.345. With RRIRDRPPRLPRPRPRPQERPRP, the “shrunken log2 fold change” value is 0.0671. Under RRIRDRPPRLPRPRPRPHCTPRP stands -0.0502; under RRIRSRPPRLPRPRPRPLDVPRP, -0.21.

In the case of RRIRVRPPRLPRPRPRPSETPRP, the “shrunken log2 fold change” value was -0.14.

For RRIRHRPPRLPRPRPRPYQTPRP, the “shrunken log2 fold change” value was -0.112.

For RRIRNRPPRLPRPRPRPCRSPRP, the “shrunken log2 fold change” value was -0.0607. Under RRIRWRPPRLPRPRPRPAPQPRP stands 0.743; under RRIRFRPPRLPRPRPRPSGTPRP, -0.0628; under RRIRFRPPRLPRPRPRPVRHPRP, 0.0636.

In the case of RRIRIRPPRLPRPRPRPAFCPRP, the “shrunken log2 fold change” value was 0.167.

As for RRIRCRPPRLPRPRPRPSQDPRP, the “shrunken log2 fold change” value worked out at 0.0757. The value for RRIRNRPPRLPRPRPRPFLRPRP was -0.0221; that for RRIRERPPRLPRPRPRPKIYPRP was -0.165; that for RRIRGRPPRLPRPRPRPTSNPRP was 0.659. The value for RRIRCRPPRLPRPRPRPVFAPRP was -0.224; that for RRIRYRPPRLPRPRPRPALQPRP was -0.1; that for RRIRLRPPRLPRPRPRPHVAPRP was 0.0259. Under RRIRLRPPRLPRPRPRPRENPRP stands 0.345; under RRIRPRPPRLPRPRPRPTEKPRP, 0.0615; under RRIRVRPPRLPRPRPRPVECPRP, -0.286.

As to RRIRSRPPRLPRPRPRPVQMPRP, the “shrunken log2 fold change” value is 0.0426. The value for RRIRNRPPRLPRPRPRPHGQPRP was -0.0642; that for RRIRVRPPRLPRPRPRPTTNPRP was 0.0416; that for RRIRRRPPRLPRPRPRPWWTPRP was 0.0815.

As to RRIRNRPPRLPRPRPRPYAMPRP, the “shrunken log2 fold change” value came to 0.0743. Take RRIRQRPPRLPRPRPRPPDPPRP: the “shrunken log2 fold change” value amounted to 0.151. Under RRIRDRPPRLPRPRPRPRVKPRP stands 0.103.

RRIRDRPPRLPRPRPRPVFTPRP: the “shrunken log2 fold change” value came to 0.076. Under RRIRPRPPRLPRPRPRPWYRPRP stands -0.601; under RRIRRRPPRLPRPRPRPRVMPRP, 0.413. Under RRIRLRPPRLPRPRPRPPGWPRP stands 0.218. Under RRIRARPPRLPRPRPRPWFPPRP stands -0.0966; under RRIRCRPPRLPRPRPRPDMHPRP, 0.0405; under RRIRWRPPRLPRPRPRPIWFPRP, 1.96.

Consider RRIRVRPPRLPRPRPRPADQPRP, for which the “shrunken log2 fold change” value was determined as 0.0278.

As for RRIRNRPPRLPRPRPRPIVFPRP, the “shrunken log2 fold change” value was -0.207. For the sequence RRIRKRPPRLPRPRPRPWYRPRP, the “shrunken log2 fold change” value was 0.0232. The value for RRIRIRPPRLPRPRPRPKMTPRP was 0.123; that for RRIRGRPPRLPRPRPRPGMNPRP was 0.105.

Regarding RRIRYRPPRLPRPRPRPSTHPRP, the “shrunken log2 fold change” value turned out to be 0.396. The value for RRIRMRPPRLPRPRPRPNEIPRP was 0.0871. Turning to RRIRTRPPRLPRPRPRPWIDPRP, the “shrunken log2 fold change” value was -0.0368. As to RRIRLRPPRLPRPRPRPQDQPRP, the “shrunken log2 fold change” value is 0.14. Under RRIRNRPPRLPRPRPRPMALPRP stands -0.0652; under RRIRVRPPRLPRPRPRPRRIPRP, -0.0306; under RRIRVRPPRLPRPRPRPDVCPRP, 0.0951. As for RRIRLRPPRLPRPRPRPFWFPRP, the “shrunken log2 fold change” value was 0.0715.

On to RRIRFRPPRLPRPRPRPWRAPRP, for which the “shrunken log2 fold change” value was 0.0757. The value for RRIRERPPRLPRPRPRPYMNPRP was -0.602. The value for RRIRRRPPRLPRPRPRPCHGPRP was -0.589. Under RRIRNRPPRLPRPRPRPTMGPRP stands -0.0468; under RRIRGRPPRLPRPRPRPLRPPRP, 1.47. With RRIRDRPPRLPRPRPRPMVPPRP, the “shrunken log2 fold change” value worked out at 0.0555. Under RRIRMRPPRLPRPRPRPHEAPRP stands 0.0628; under RRIRIRPPRLPRPRPRPQAKPRP, 0.2; under RRIRTRPPRLPRPRPRPPCFPRP, 0.153.

In the case of RRIRTRPPRLPRPRPRPGECPRP, the “shrunken log2 fold change” value was -0.258. Under RRIRHRPPRLPRPRPRPRVAPRP stands 0.395; under RRIRNRPPRLPRPRPRPFHIPRP, -0.0783; under RRIRSRPPRLPRPRPRPVKAPRP, 0.0824. The value for RRIRIRPPRLPRPRPRPQILPRP was 0.0356; that for RRIRDRPPRLPRPRPRPDRDPRP was -0.0722; that for RRIRARPPRLPRPRPRPLWQPRP was 0.136. The value for RRIRWRPPRLPRPRPRPKVTPRP was -0.165. In the case of RRIRGRPPRLPRPRPRPFFSPRP, the “shrunken log2 fold change” value was 0.125.

As for RRIRPRPPRLPRPRPRPWWFPRP, the “shrunken log2 fold change” value was -0.133. Under RRIRKRPPRLPRPRPRPPCTPRP stands 0.193.

For RRIRVRPPRLPRPRPRPHIWPRP, the “shrunken log2 fold change” value was -0.244. The value for RRIRRRPPRLPRPRPRPLTCPRP was -0.12; that for RRIRLRPPRLPRPRPRPVTKPRP was 0.0485; that for RRIRGRPPRLPRPRPRPEAPPRP was 1.73. Under RRIRFRPPRLPRPRPRPYYAPRP stands -1.21; under RRIRLRPPRLPRPRPRPTWMPRP, -0.0614. As to RRIRPRPPRLPRPRPRPPKQPRP, the “shrunken log2 fold change” value is 0.066. Consider RRIRWRPPRLPRPRPRPMLIPRP, for which the “shrunken log2 fold change” value stood at 0.157. Under RRIRSRPPRLPRPRPRPDAVPRP stands 0.32; under RRIRDRPPRLPRPRPRPVGRPRP, 0.301; under RRIRERPPRLPRPRPRPECYPRP, -0.143. Under RRIRTRPPRLPRPRPRPISIPRP stands -0.477.

Regarding RRIRSRPPRLPRPRPRPPCWPRP, the “shrunken log2 fold change” value came to 0.29. Under RRIRLRPPRLPRPRPRPRSPPRP stands 0.803. Under RRIRLRPPRLPRPRPRPAVHPRP stands -0.149; under RRIRERPPRLPRPRPRPLMKPRP, -0.502.
